Tests used:
[1] = target: T1, Hsh49p (Saccharomyces cerevisiae) (UniProt Q99181); assay: fluorescence anisotropy; conditions: 20 mM K-Hepes pH 7.5, 125 mM KCl, 1 mM EDTA, 5 mM DTT, 0.01% Igepal, E. coli tRNA (100 ng FA, 500 ng EMSA), 22°C 20 min; EMSA gels at 4°C
T1 sequence: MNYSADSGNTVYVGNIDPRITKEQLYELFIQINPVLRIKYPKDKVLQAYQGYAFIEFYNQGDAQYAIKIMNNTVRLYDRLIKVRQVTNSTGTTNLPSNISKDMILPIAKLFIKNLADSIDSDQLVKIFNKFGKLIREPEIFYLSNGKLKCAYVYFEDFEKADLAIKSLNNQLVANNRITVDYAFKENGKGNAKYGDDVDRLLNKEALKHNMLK

HisHsh49p = target: T2, HisHsh49p (S. cerevisiae, UniProt Q99181 1-213); assay: pull-down; purified HisHsh49p–Cus1 complex (40 µM) cut with trypsin (10 µg/mL, 10 min, 22°C), His-tagged Hsh49p held on Ni-NTA resin; fragments told by N-terminal sequencing and MALDI-TOF; conditions: both partners purified
T2 construct: Hsh49p, S. cerevisiae; Held on Ni-NTA resin by its His tag after the trypsin digest; also called His-tagged Hsh49p; source: E. coli, coexpressed with Cus1(121-392)p, purified as complex; not shown: His6, N-terminal, kept
T2 sequence (looked up): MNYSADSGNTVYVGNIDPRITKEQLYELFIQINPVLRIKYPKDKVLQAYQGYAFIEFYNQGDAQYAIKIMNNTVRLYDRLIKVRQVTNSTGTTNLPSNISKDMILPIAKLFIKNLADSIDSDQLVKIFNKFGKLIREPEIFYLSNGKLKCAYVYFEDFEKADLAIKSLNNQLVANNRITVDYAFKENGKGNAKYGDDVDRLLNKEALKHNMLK

Hsh49p = target: T3, Hsh49p (Saccharomyces cerevisiae, UniProt Q99181 1-213); assay: EMSA; up to 1.5 µM protein, E. coli tRNA; 20 mM K-Hepes pH 7.5, 125 mM KCl, 1 mM EDTA, 5 mM DTT, 0.01% Igepal, E. coli tRNA (100 ng FA, 500 ng EMSA), 22°C 20 min; EMSA gels at 4°C; conditions: protein: recombinant, tags: His-TEV tag (cleaved), label: 3' fluorescein
T3 sequence: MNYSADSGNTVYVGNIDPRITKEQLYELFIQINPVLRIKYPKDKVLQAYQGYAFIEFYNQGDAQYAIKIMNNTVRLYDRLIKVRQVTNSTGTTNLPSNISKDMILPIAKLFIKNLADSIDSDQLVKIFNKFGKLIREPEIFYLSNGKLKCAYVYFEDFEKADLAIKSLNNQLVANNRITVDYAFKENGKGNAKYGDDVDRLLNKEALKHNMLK

[2] = target: T4, Hsh49p Tyr152Ala-Tyr154Ala (RRM2 mutant);Cus1(290-350)p (Saccharomyces cerevisiae;Saccharomyces …, UniProt Q99181;Q02554 1-213;290-350, Y152A;Y154A|); assay: fluorescence anisotropy; mutation has no effect; 20 mM K-Hepes pH 7.5, 125 mM KCl, 1 mM EDTA, 5 mM DTT, 0.01% Igepal, E. coli tRNA (100 ng FA, 500 ng EMSA), 22°C 20 min; EMSA gels at 4°C; conditions: protein: recombinant;recombinant; tags: His-TEV tag (cleaved);none stated; coexpressed; copies: 1;1; label: 3' fluorescein; hairpin with 5' single strand
T4 sequence 1: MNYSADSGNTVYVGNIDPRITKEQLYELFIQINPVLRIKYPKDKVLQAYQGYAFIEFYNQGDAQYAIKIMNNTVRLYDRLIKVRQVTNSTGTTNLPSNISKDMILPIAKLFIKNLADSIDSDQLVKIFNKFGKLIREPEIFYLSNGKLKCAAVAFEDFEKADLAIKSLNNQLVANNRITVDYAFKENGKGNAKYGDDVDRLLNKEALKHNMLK
T4 sequence 2: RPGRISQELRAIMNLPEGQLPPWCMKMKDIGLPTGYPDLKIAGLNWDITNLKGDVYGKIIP

[3] = target: T5, Hsh49p Tyr52Ala-Phe54Ala (RRM1 mutant);Cus1(290-350)p (Saccharomyces cerevisiae;Saccharomyces …, UniProt Q99181;Q02554 1-213;290-350, Y52A;F54A|); assay: fluorescence anisotropy; 20 mM K-Hepes pH 7.5, 125 mM KCl, 1 mM EDTA, 5 mM DTT, 0.01% Igepal, E. coli tRNA (100 ng FA, 500 ng EMSA), 22°C 20 min; EMSA gels at 4°C; conditions: protein: recombinant;recombinant; tags: His-TEV tag (cleaved);none stated; coexpressed; copies: 1;1; label: 3' fluorescein; hairpin with 5' single strand
T5 sequence 1: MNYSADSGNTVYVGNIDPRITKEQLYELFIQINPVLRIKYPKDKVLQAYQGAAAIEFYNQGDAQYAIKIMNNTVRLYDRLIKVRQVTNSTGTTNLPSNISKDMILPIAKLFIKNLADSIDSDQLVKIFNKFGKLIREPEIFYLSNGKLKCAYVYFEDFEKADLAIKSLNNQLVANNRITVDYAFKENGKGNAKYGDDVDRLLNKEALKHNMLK
T5 sequence 2: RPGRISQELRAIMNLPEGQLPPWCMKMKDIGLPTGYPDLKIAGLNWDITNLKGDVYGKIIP

Hsh49p;Cus1(290-368)p [4] = target: T6, Hsh49p;Cus1(290-368)p (Saccharomyces cerevisiae;Saccharomyces …, UniProt Q99181;Q02554 1-213;290-368, |); assay: fluorescence anisotropy; similar to RRM1-Cus1(290-368)p; 20 mM K-Hepes pH 7.5, 125 mM KCl, 1 mM EDTA, 5 mM DTT, 0.01% Igepal, E. coli tRNA (100 ng FA, 500 ng EMSA), 22°C 20 min; EMSA gels at 4°C; conditions: protein: recombinant;recombinant; tags: His-TEV tag (cleaved);none stated; coexpressed; copies: 1;1; label: 3' fluorescein; hairpin with 5' single strand
T6 sequence 1: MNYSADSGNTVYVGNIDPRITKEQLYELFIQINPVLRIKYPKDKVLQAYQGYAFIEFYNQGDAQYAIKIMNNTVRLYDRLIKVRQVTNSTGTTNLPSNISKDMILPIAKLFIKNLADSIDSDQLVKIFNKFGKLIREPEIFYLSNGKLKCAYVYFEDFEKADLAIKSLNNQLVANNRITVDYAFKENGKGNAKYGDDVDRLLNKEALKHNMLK
T6 sequence 2: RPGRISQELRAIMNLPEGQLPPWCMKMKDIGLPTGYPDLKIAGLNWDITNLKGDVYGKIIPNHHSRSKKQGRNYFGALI

Hsh49p RRM2 = target: T7, Hsh49p RRM2 (Saccharomyces cerevisiae, UniProt Q99181 108-185); assay: fluorescence anisotropy; 20 mM K-Hepes pH 7.5, 125 mM KCl, 1 mM EDTA, 5 mM DTT, 0.01% Igepal, E. coli tRNA (100 ng FA, 500 ng EMSA), 22°C 20 min; EMSA gels at 4°C; conditions: protein: recombinant; tags: His-TEV tag (cleaved); label: 3' fluorescein; hairpin
T7 sequence: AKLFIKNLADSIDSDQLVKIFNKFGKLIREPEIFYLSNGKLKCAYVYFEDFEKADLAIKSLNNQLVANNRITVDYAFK

Hsh49p;Cus1(290-368)p [5] = target: T6, Hsh49p;Cus1(290-368)p; assay: EMSA; up to 1.5 µM protein, E. coli tRNA; 20 mM K-Hepes pH 7.5, 125 mM KCl, 1 mM EDTA, 5 mM DTT, 0.01% Igepal, E. coli tRNA (100 ng FA, 500 ng EMSA), 22°C 20 min; EMSA gels at 4°C; conditions: protein: recombinant;recombinant, tags: His-TEV tag (cleaved);none stated, coexpressed, copies: 1;1, label: 3' fluorescein
Hsh49p;Cus1(290-368)p [6] = target: T6, Hsh49p;Cus1(290-368)p; assay: fluorescence anisotropy; 20 mM K-Hepes pH 7.5, 125 mM KCl, 1 mM EDTA, 5 mM DTT, 0.01% Igepal, E. coli tRNA (100 ng FA, 500 ng EMSA), 22°C 20 min; EMSA gels at 4°C; conditions: protein: recombinant;recombinant; tags: His-TEV tag (cleaved);none stated; coexpressed; copies: 1;1; label: 3' fluorescein; hairpin with single-stranded flanks
Hsh49p;Cus1(290-368)p [7] = target: T6, Hsh49p;Cus1(290-368)p; assay: fluorescence anisotropy; pseudouridines have no large effect; 20 mM K-Hepes pH 7.5, 125 mM KCl, 1 mM EDTA, 5 mM DTT, 0.01% Igepal, E. coli tRNA (100 ng FA, 500 ng EMSA), 22°C 20 min; EMSA gels at 4°C; conditions: protein: recombinant;recombinant; tags: His-TEV tag (cleaved);none stated; coexpressed; copies: 1;1; label: 3' fluorescein; hairpin with single-stranded flanks

Q: How did the binding signal (fold weaker than Hsh49p-Cus1(290-368)p) [1] turn out when “ACGAAUCUCUUUGCCUUUUGGCUUAGAUCAAGUGUAGUAUCUGUUCU [5'SLIBPRS]” was run?
A: 10

B1: Cus1p fragment comprising residues 285-355 (domain or fragment, S. cerevisiae, UniProt Q02554 285-355, looked up)
chain: MVDHKRPGRISQELRAIMNLPEGQLPPWCMKMKDIGLPTGYPDLKIAGLNWDITNLKGDVYGKIIPNHHSR
notes: also called digested Cus1p fragment; source: trypsin digest of the purified HisHsh49p-Cus1 complex made in E. coli
Q: Does B1 bind (HisHsh49p)?
A: binds

Q: Does ACGAAUCUCUUUGCCUUUUGGCUUAGA (structured_RNA) [5'SLI] bind (Hsh49p; hairpin with 5' single strand)?
A: no binding

Q: Does ACGAAUCUCUUUGCCUUUUGGCUUAGA (structured_RNA) [5'SLI] bind [2]?
A: binds

Q: What about the binding signal [3] of the same molecule?
A: ~10 fold lower affinity than wild type

Q: Does ACGAAUCUCUUUGCCUUUUGGCUUAGA (structured_RNA) [5'SLI] bind (Hsh49p;Cus1(290-368)p [4])?
A: binds

Q: Does UUUCAGUGUAACAACUGAAA (structured_RNA) [SLIIa] bind (Hsh49p RRM2)?
A: no binding

Q: Does UUUCAGUGUAACAACUGAAA (structured_RNA) [SLIIa] bind (Hsh49p; hairpin)?
A: no binding

Q: Does UUUCAGUGUAACAACUGAAA (structured_RNA) [SLIIa] bind (Hsh49p;Cus1(290-368)p [5]; hairpin)?
A: no binding

Q: Does UGACCUCAAUGAGGCUCA (structured_RNA) [SLIIb] bind (Hsh49p RRM2)?
A: no binding

Q: Does UGACCUCAAUGAGGCUCA (structured_RNA) [SLIIb] bind (Hsh49p; hairpin)?
A: no binding

Q: Does UGACCUCAAUGAGGCUCA (structured_RNA) [SLIIb] bind (Hsh49p;Cus1(290-368)p [5]; hairpin)?
A: no binding

Q: Which results are given for UCUUUGCCUUUUGGCUUAGA (structured_RNA) [SLI]?
A: binding result (Hsh49p; hairpin): no binding; binding result (Hsh49p;Cus1(290-368)p [5]; hairpin): no binding

Q: Does UCAAGUGUAGUAUCUGUUCU (ssRNA) [BPRS] bind (Hsh49p)?
A: no binding

Q: Does UCAAGUGUAGUAUCUGUUCU (ssRNA) [BPRS] bind (Hsh49p;Cus1(290-368)p [5])?
A: no binding

Q: With ACGAAUCUCUUUGCCUUUUGGCUUAGAUCAAGUGUAGUAUCUGUUCU (structured_RNA) [5'SLIBPRS] as the molecule, how does the binding signal (Hsh49p;Cus1(290-368)p [6]) read?
A: ~10 fold stronger than Hsh49p alone

Q: Does ACGAAUCUCUUUGCCUUUUGGCUUAGAUCAAGUGUAGUAUCUGUUCU (structured_RNA, pseudouridines around the BPRS (positions in figure)) [5'SLIBPRS-pseu] bind (Hsh49p;Cus1(290-368)p [7])?
A: binds

Source: article PMC5435868, “Crystal structure of U2 snRNP SF3b components: Hsh49p in complex with Cus1p-binding domain” (RNA, 2017)
